Source: the DeepSol protein solubility set

experiment: soluble on expression in E. coli; label from the status in PepcDB or PDB records

| Sequence | soluble on expression in E. coli |
| --- | --- |
| MASMGVPALFRLLSRKFAKVITPVIEAPTEKLPDGTEIEPDLSLPNPNGVECDNLYLDMNGIVHPCSHPEDRPAPETEDEMMVAVFEYTDRILAMVRPRQLLFIAIDGVAPRAKMNQQRSRRFRSSREAALKEEELQAFIEEAKQQGIPIDENATKKKSWDSNCITPGTPFMDTLAKSLRYYIINKLNSDPCWRNVRFILSDASVPGEGEHKIMEFIRSQRVKPEYDPNTHHVVYGLDADLIMLGLATHEPHFRVLREDVFFQQGSTKKTKEERLGIKRLDDVSETNKVPVKKPFIWLNVSILREYLEVELYVPNLPFPFDLERAIDDWVFFIFFVGNDFLPHLPSLDIRDGAVERLTEIWRASLPHMGGYLTLDGSVNLARAEVILSAVGNQEDDIFKRLKQQEDRRNENYRRRQQRESNQESESYVDNVVIQRSVETQSTEVVTSSKSTSVDTKPPKKTQKIDAPAPVDLVNLSEKTSNRSLGATNRELINNRAANRLGLSREAAAVSSVNKLAASALKAQLVSNETLQNVPLEDSIASSSAYEDTDSIESSTPVVHPIDTKVSNVGQKRKAPDSTEENENTDTVRLYEPGYRERYYEQKFHISPDEPEKIREAVKHYVHGLCWVLLYYYQGCPSWTWYYPYHYAPFAADFKDLASIDVKFELNQPFKPYEQLLGVLPAASKNNLPEKLQTLMTDENSEIIDFYPENFTIDLNGKKFEWQGVALLPFIDENRLLNAVSKIYPQLTEEESKRNEDGSTLLFISEHHPMFSELVKQLYSKKRQGKPLKLSGKMAHGLFGKVNTNDSVIPNVSVQCPIDVTSADALQKYGSIDDNQSISLVFEVPKSHFVHKSMLLRGVKMPNRVLTPEDINQVRAERSFSSRRNNGNSAAALEHHHHHH | soluble |
| MASPPPFHSQKLPGEYFRYKGVPFPVGLYSLESISLAENTQDVRDDDIFIITYPKSGTTWMIEIICLILKEGDPSWIRSVPIWERAPWCETIVGAFSLPDQYSPRLMSSHLPIQIFTKAFFSSKAKVIYMGRNPRDVVVSLYHYSKIAGQLKDPGTPDQFLRDFLKGEVQFGSWFDHIKGWLRMKGKDNFLFITYEELQQDLQGSVERICGFLGRPLGKEALGSVVAHSTFSAMKANTMSNYTLLPPSLLDHRRGAFLRKGVCGDWKNHFTVAQSEAFDRAYRKQMRGMPTFPWDEDPEEDGSPDPEPSPEPEPKPSLEPNTSLEREPRPNSSPSPSPGQASETPHPRPS | soluble |
| MASVSFGGLATGLDSNTLISQLMYLERAPERILESKKSTISSQIDVYTQVTNLLNSFKTLAAGMNTATGFMGKTTSVGDSTVATATSSSIASPGSFNLTVNSLAKNERQVVDQGYASADALNFKTGTFTISGVATPITIAEGQNSLQGIASAINASGANVTASIINDGSANPYRLVITGKDTNNYTLNFSGLTGDPASGSAYTTPTITKSGPTYQAGAAASFSVNGIAITKTSNIVTDVIPGVTLTLLKEGGATTTVTVGNDTSGVTKKINDFVGAYNAAMSQINKQSEYNATTKKGGVLSGDSTLRSVKTQLQNVLTTPVAGITGKYSTLADIGITTDRSNGTLTVDATKLADALGSNFNDVVELFTKNGGVSNLDTEKYGVAEQFRKVIDRFTHAYEGPSSTANGIISSRVRGLNDTIKSIDDQIDAMEVRMERKEEALKKQFTAMETLVSSLTTQGNSLISYLYGS | not soluble |
| MASVTLKNVCKAYGDVLISKNVDLEIQEGEFVVFVGPSGCGKSTLLRCIAGLEDITSGDLYIGEQRMNDVEPSKRGVGMVFQSYALYPHLNLYDNMSFGLKLSKADKSEIKKRVDHAAEILQLSHLLDRQPKALSGGQRQRVAIGRTLVSQPNVFLLDEPLSNLDAALRVQMRSEITKLQRKLGCTMIYVTHDQVEAMTMADKIVVLDAGFVSQVGKPLELYHYPQNRFVAGFIGSPKMNFMSVFIEGVEKDRVQVQLSNGTTFWIPVDGTTVTRGERMSLGIRPEHLVEAEHGDAKIEGKVMIVEKLGNETQVYMNLKGSDSDVIYRQPDTLDVETGDTLTIGIPAHRCHLFHSDGRACRRLHKEKGVDLPA | not soluble |
| MASWSHPQFEKGASTSLYKKAGLMDSQRSTLVHWFRKGLRLHDNPALSHIFTAANAAPGRYFVRPIFILDPGILDWMQVGANRWRFLQQTLEDLDNQLRKLNSRLFVVRGKPAEVFPRIFKSWRVEMLTFETDIEPYSVTRDAAVQKLAKAEGVRVETHCSHTIYNPELVIAKNLGKAPITYQKFLGIVEQLKVPKVLGVPEKLKNMPTPPKDEVEQKDSAAYDCPTMKQLVKRPEELGPNKFPGGETEALRRMEESLKDEIWVARFEKPNTAPNSLEPSTTVLSPYLKFGCLSARLFNQKLKEIIKRQPKHSQPPVSLIGQLMWREFYYTVAAAEPNFDRMLGNVYCMQIPWQEHPDHLEAWTHGRTGYPFIDAIMRQLRQEGWIHNLARHAVACFLTRGDLWISWEEGQRVFEQLLLDQDWALNAGNWMWLSASAFFHQYFRVYSPVAFGKKTDPQGHYIRKYVPELSKYPAGCIYEPWKASLVDQRAYGCVLGTDYPHRIVKHEVVHKENIKRMGAAYKVNREVRTGKEEESSFEEKSET | soluble |
| MASYRKRENGLWEYRISYKTIDGKYKRKEKGGFKTKKLAQAAAIEIEKKLTQNILTNDEVTLYDFVKTWSEVYKRPYVKDKTWETYSKNFKHIKNYFQELKVKDITPLYYQKKLNEFGEKYAQETLEKFHYQIKGAMKVAVREQVVTFNFAEGAKVKSQVEPKNEEEDFLEEREYKALLALTRENIQYVSYFTLYLLAVTGLRFSEAMGLTWSDIDFKNGILDINKSFDYSNTQDFADLKNESSKRKVPIDSNTIDILREYKKNHWQANIKNRVCFGVSNSACNKLIKKIVGRKVRNHSLRHTYASFLILNGVDIVTISKLLGHESPDITLKVYTHQMEALAERNFEKIKNIFLVA | not soluble |
| MATGTATEKPKIVWNEGRHRFETDDHEAFIEYKMKNDGKVMDLVRTFVPPSKAGLGLASHLCVAAFEHASEHSFSIIPTCSYVSVYISSFLKKLR | not soluble |
| MATIGLDRLYYAKITENENGEETYATPVPLAKAITAELSVELAEATLYADDGAAEVVKEFQSGTLTLGVADIGVDAAEVLTGATLDDNKVLISTSEDGGAPVAIGFRAKKANGKYRYFWLYRVKFGIPATNLQTKGDSITFSTPTIEGTVMRRNKPDGQGKHPWKAEVSEDDPGVLPETIAGWYTEVYEPVFAVGGGS | not soluble |
| MATITQRNGKWRVQIRMKGVSRSATFERASDAKAWAARIESQIMDGIQGNAPRNTIFADLIRRYLSEVTPSKRGAREESYRIGRALKTPLAKVRLADLRPQDFADWRDQRLQEVSPTSVGRELTTLSAVCEHAMKEWGLLRENPVRKISKPKKSRARTRRPTEQEIADICAALLYRPNEKPKMAVQRVAVAVLFAIETAMRAGEICGLKWADVNMRRRIAHLPITKNGDSRDVPLSLRAAELIEQLRGIDDTWVFSLDAKSLDVLFRRARDNCGIQGLHFHDTRREALTRLSKKVPVEVLAKISGHRDLRILLNVYYRPDMADIAKMLD | not soluble |
| MATLDHLLEELFEACSVFDKFPVSFNRTLIDELVDCLDFEEPTLTVIRKFVRNLDFEGKLAPIRMVIRLLDAAIKNNKFRNEDDLLLEFIQKSEAILSRPRNRLLLQDLFNFYTNPVVFAVREPESWLVVIRWVMNEFADEYLSCFHIDLFVKFICQIPSAAEARRLNIISEAISPDLVGSFSARIIYNYAQDLTIDECNTFVNNFRLSSLGYRWPAIRVLLKMRELHPSLVIPLAPASWTEENRRVDVICRLLFPMDFDTLKMMDVQLENVEALVDSVLDSPVDIDLKEKMLDHMNERQFEKYFDELLSFAKIESNDVNIHVTSALRSLPQHATRQKVAQLFEALGDKILDLALILNLSLAYGSNAFDFPEFEKFKDRYSKLVSDAIKAPVGESNAERIITVLECMKLFPCFLPVKADETAVYLDFSNSLTLNEKGAREVPVKTTGHEKMHVTVLLTARADGYKCRPYVLLPRTRPDKEIAARFKNSLQLSWCNRTFFNDEVTEDYLNTIIGPPFFGKRLLAWDAFRCHISDATKRVLKNLKVDTAVVPGGCTKFVQAPDVYWNSPFKASIRRSYEDWMVHGQKSFTKSNNMRPPSMLQYLEWIENAWNDLPKDLILKSFKGCALTIATDGSEDNQIHCFAPNGSIPSGLDLLNSTRIENSLVDLVQDIGIDESQEEGNESDNSIISVG | not soluble |
| MATQSDLMELEMAMDPDRKAAVSHWQQQSYLDSGIHSGATTTAPSLSGKGNPEDDDVDNQVLYEWEQGFNQSFNQEQVADIDGQYAMTRAQRVRAAMFPETLDEGMQIPSTQFDSAHPTNVQRLAEPSQMLKHAVVNLINYQDDAELATRAIPELTKLLNDEDQVVVNKAAVMVHQLSKKEASRHAIMRSPQMVSAIVRTMQNTNDVETARCTSGTLHNLSHHREGLLAIFKSGGIPALVNMLGSPVDSVLFHAITTLHNLLLHQEGAKMAVRLAGGLQKMVALLNKTNVKFLAITTDCLQILAYGNQESKLIILASGGPQALVNIMRTYTYEKLLWTTSRVLKVLSVCSSNKPAIVEAGGMQALGLHLTDPSQRLVQNCLWTLRNLSDAATKQEGMEGLLGTLVQLLGSDDINVVTCAAGILSNLTCNNYKNKMMVCQVGGIEALVRTVLRAGDREDITEPAICALRHLTSRHQDAEMAQNAVRLHYGLPVVVKLLHPPSHWPLIKATVGLIRNLALCPANHAPLREQGAIPRLVQLLVRAHQDTQRRTSMGGTQQQFVEGVRMEEIVEACTGALHILARDIHNRIVIRGLNTIPLFVQLLYSPIENIQRVAAGVLCELAQDKEAAEAIEAEGATAPLTELLHSRNEGVATYAAAVLFRMSEDKPQDYKKRLSVELTSSLFRTEPMTWNETGDLGLDIGAQGEPLGYRQDDPSYRSFHSGGYGQDAMGMDPMMEHEMAGHHPGPDYPVDGLPDLGHTQDLIDGLPPGDSNQLAWFDTDL | soluble |
| MATVTKAPKKQIQFADDMQEFTKFPTKTGRRSLSRSISQSSTDSYSSAASYTDSSDDEVSPREKQQTNSKGSSNFCVKNIKQAEFGRREIEIAEQDMSALISLRKRAQGEKPLAGAKIVGCTHITAQTAVLIETLCALGAQCRWSACNIYSTQNEVAAALAEAGVAVFAWKGESEDDFWWCIDRCVNMDGWQANMILDDGGDLTHWVYKKYPNVFKKIRGIVEESVTGVHRLYQLSKAGKLCVPAMNVNDSVTKQKFDNLYCCRESILDGLKRTTDVMFGGKQVVVCGYGEVGKGCCAALKALGAIVYITEIDPICALQACMDGFRVVKLNEVIRQVDVVITCTGNKNVVTREHLDRMKNSCIVCNMGHSNTEIDVTSLRTPELTWERVRSQVDHVIWPDGKRVVLLAEGRLLNLSCSTVPTFVLSITATTQALALIELYNAPEGRYKQDVYLLPKKMDEYVASLHLPSFDAHLTELTDDQAKYLGLNKNGPFKPNYYRY | not soluble |
| MAVIRIKKPRGPGEKDQPLEGEPKLKRIRIKTKVTDEDIKPKPKLKINLKKKKESADGKEKKNSLKLKLNLKKNEEPVKKIHKAPKLRLKPIRIPGEAYDSEASDIEDDPLIESGVILRILPDIQLEFVKNSLESGDYSGISIKWKNERHAVVTINDVMYGAILVDLPTVIEVNKSVDRKNLLKTFDVSQMLLCIRPIQEEEEVYALEAPDTEDLVVKHFEGIEDEIWENKETFLKGYNGAPLSDMEAKHLKEIALKGYDYKHGISPPLYNVRNRRFRRKMDPNEIDYVEKVVDMLLKQDKQAEEVSYDLVDKSELQARQERVSSWENFKEEPGEPLSRPALKKEEIHTIASAVGKQGAEEEGEEGMEEEEEEDLDLGAAFESEEEGSGAEGDKEQQQEEVGDEVDQDTGGEDDDDDDDGDIEAAGGESESDDEKDENRQHTELLADELNELETTLAHTKHKLSKATNPLLKSRFIDSIKKLEKEAELKRKQLQQTEDSVQKQHQHRSDAETANNVEEEEEEEEEEEEEDEVDEDEEDDEENDEDEDNVHEREHIQENKVVRELDEAPAEETLDQNDLDMMMLFGAEGDE | not soluble |
